Key:
supercoiled pT75 = assay: Relative transcription activity with different rNTP/dNTP mixes; type: biochemical
Protocol: Transcription reactions: Transcription reactions were carried out in 40 mM Tris-Cl pH 8.0, 15 mM MgCl2, and 5 mM DTT or 20 mM Manganese Citrate pH 8.0, 5 mM DTT at 37° C. Template, polymerase, and NTP concentrations were as indicated in the legends to the figures and tables. Relative activity determinations were made by taking 4 μl aliquots of reactions at 5, 10, and 20 minute time points and spotting on to DE81 filter paper. Unincorporated nucleotides were separated from incorporated nucleotides by washing the filter paper with 0.5 M KH2PO4 pH 7.0 and retained radioactive nucleotide was quantitated with a Molecular Dynamics phosphorimager. To evaluate rNTP/dNTP selectivity, reactions were run with 4 rNTPs and pT75 as template and α-P^32 rNTPs or α-P^32 dNTPs were used to label the transcripts. The relative rate of incorporation of an rNTP vs. its cognate dNTP was determined from the relative percentages of labeled rNTP vs. dNTP incorporated into DE81 retainable RNA at 5, 10, and 20 minute time points. Apparent miscoding frequencies were determined similarly, though in this instance the template was a single-stranded homopolymer and the reaction contained the complementary unlabeled rNTP, and complementary α-P^32 rNTP or one of the 3 non-complementary α-P^32 rNTPs. The relative percentages of labeled complementary vs. non-complementary rNTPs incorporated at 5, 10 and 20 minute time points gave an apparent miscoding rate. The rNTP/dNTP selectivity assay was used to test the following T7 RNAP mutants for effects on substrate discrimination: D537S, D537E, S539A, R5S1S, D552S, R627S, K631S, L637A, Y639S, Y639F, Y639A, G640A, F644A, G645A, Q649S, […], H811S, H811A, D812A, D812E, D812S, D812N, D879E+ΔF882+ΔA883, D879E+A881T+ΔA883, D879E+F884+A885, D879E+F882Y, D879E+ΔA883, D879E+F882W, D879E.
Relative activity of the W.T. and Y639F polymerases with different NTP combinations: The relative activities of the Y639F and W.T. polymerases with supercoiled pT75 as a template and various combinations of rNTPs/dNTPs were measured in both Mg^2+ and Mn^2+ buffers (see, Table II,).

HindIII-cut pT75 = assay: Run-off transcription with 2′-OMe- or 2′-azido-NTPs on HindIII-cut pT75; type: biochemical; conditions: for Reduction of run-off transcript synthesis: 2′-OMe-UTP; for Reduction of run-off transcript yields relative to 4 NTPs: 2′-azido-UTP
Protocol: RNAPs were prepared as described (Brieba, L G, and Sousa, R. Biochemistry, 39: 919-923, 2000). Transcription reactions were carried out for 30 min. at room temperature in 40 mM Tris-Cl, pH 8.0, 6 mM MgCl2, 10 mM NaCl, 2 mM spermidine, with templates at 10^−7 M and RNAPs at 2×10^−7 M. All NTPs were used at 0.5 mM, and transcripts were labeled by inclusion of 1% v/v 800 Ci/mM […] in the reaction. Modified NTPs were from Trilink Biotechnologies. Reactions were stopped by addition of an equal volume of 90% formamide, 50 mM EDTA, 0.01% xylene cyanol, resolved by electrophoresis in 20% acrylamide, 1% bis-acrylamide, 1×TBE gels, and visualized on a Molecular Dynamics Phosphorimager.
With the pPK5 template, UMP and CMP are not incorporated into the first 9 nt of RNA. Incorporation of non-canonical NMPs during synthesis of the first 9 nt of RNA is expected to cause greater reductions in run-off transcript synthesis because the RNA is readily released from the transcription complex during this initial phase of transcription. Therefore, if incorporation of a non-canonical NMP is slow, the RNA will usually dissociate before the NMP is incorporated. […] To see whether NMPs with bulky 2′-substituents could be incorporated during the initial phase of transcription a Hind-III linearized pT75 (Tabor, S. and Richardson, C. C., “A bacteriophage T7 RNA polymerase/promoter system for controlled exclusive expression of specific genes,” Proc. Natl. Acad. Sci. USA 82:1074-1078, 1985) was used. On this template, UMP is first incorporated at +14 while CMP is incorporated at +6 and +7. In reactions with 2′-OMe-UTP run-off transcript synthesis is reduced 11-fold, 5-fold, and <2-fold with the wild-type, and the Y639F, and Y639F/H784A mutants, respectively (FIG. 2c; lanes 2, 6, 10). However, in reactions with 2′-OMe-CTP run-off transcription is undetectable with the wild-type or Y639F enzymes (FIG. 2c; lanes 3, 4, 7, 8), and is reduced ˜700-fold with Y639F/H784A (FIG. 2c; lanes 11, 12).
Run-off transcript yields in reactions with HindIII-cut pT75 and 2′-azido-UTP are reduced 18-, 8.5-, and <2-fold with wild-type and Y639F and Y639F/H784 mutants, respectively (FIG. 2d; lanes 2, 6, 10), relative to reactions with 4 NTPs (FIG. 2d; lanes 1, 5, 9). In reactions with 2′-azido-CTP, or both 2′-azido-CTP and 2′-azido-UTP, run-off transcription is undetectable with the wild-type enzyme (FIG. 2d; lanes 3, 4), is reduced 65-fold with Y639F (FIG. 2d; lanes 7, 8), but is reduced only 7-fold with Y639F/H784A (FIG. 2d; lanes 11, 12).

[1] = 1 rNTP, dCTP, dATP, dGTP, with rGMP, Mg^2+
[2] = 1 rNTP, dCTP, dATP, dGTP, with rGMP, Mn^2+
[3] = 1 rNTP, dCTP, dATP, dTTP, Mg^2+
[4] = 1 rNTP, dCTP, dATP, dTTP, Mn^2+
[5] = 1 rNTP, dCTP, dATP, dUTP, Mg^2+
[6] = 1 rNTP, dCTP, dATP, dUTP, Mn^2+
[7] = 1 rNTP, dTTP, dATP, dGTP, with rGMP, Mg^2+
[8] = 1 rNTP, dTTP, dATP, dGTP, with rGMP, Mn^2+
[9] = 1 rNTP, dTTP, dCTP, dGTP, with rGMP, Mg^2+
[10] = 1 rNTP, dTTP, dCTP, dGTP, with rGMP, Mn^2+
[11] = 2 rNTPs, dATP, dGTP, rGMP, Mg^2+
[12] = 2 rNTPs, dATP, dGTP, rGMP, Mn^2+
[13] = 2 rNTPs, dCTP, dGTP, rGMP, Mg^2+
[14] = 2 rNTPs, dCTP, dGTP, rGMP, Mn^2+
[15] = 2 rNTPs, dTTP, dGTP, rGMP, Mg^2+
[16] = 2 rNTPs, dTTP, dGTP, rGMP, Mn^2+
[17] = 2′-azido-CTP, or both 2′-azido-CTP and 2′-azido-UTP

W.T.: wild-type T7 RNA polymerase [reference compound]
Relative activity (supercoiled pT75; [1]): <.5 | Relative activity (supercoiled pT75; [2]): <.5 | Relative activity (supercoiled pT75; [3]): <.5 | Relative activity (supercoiled pT75; [4]): <.5 | Relative activity (supercoiled pT75; [5]): <.5 | Relative activity (supercoiled pT75; [6]): <.5 | Relative activity (supercoiled pT75; [7]): <.5 | Relative activity (supercoiled pT75; [8]): <.5 | Relative activity (supercoiled pT75; [9]): <.5 | Relative activity (supercoiled pT75; [10]): <.5 | Relative activity (supercoiled pT75; [11]): <.5 | Relative activity (supercoiled pT75; [12]): <.5 | Relative activity (supercoiled pT75; 2 rNTPs, dATP, dTTP, Mg^2+): <.5 | Relative activity (supercoiled pT75; 2 rNTPs, dATP, dTTP, Mn^2+): <.5 | Relative activity (supercoiled pT75; 2 rNTPs, dCTP, dATP, Mg^2+): <.5 | Relative activity (supercoiled pT75; 2 rNTPs, dCTP, dATP, Mn^2+): .5-.9 | Relative activity (supercoiled pT75; [13]): <.5 | Relative activity (supercoiled pT75; [14]): <.5 | Relative activity (supercoiled pT75; 2 rNTPs, dCTP, dTTP, Mg^2+): 2 | Relative activity (supercoiled pT75; 2 rNTPs, dCTP, dTTP, Mn^2+): 5-7 | Relative activity (supercoiled pT75; 2 rNTPs, dCTP, dUTP, Mg^2+): 2-6 | Relative activity (supercoiled pT75; 2 rNTPs, dCTP, dUTP, Mn^2+): 3 | Relative activity (supercoiled pT75; [15]): <.5 | Relative activity (supercoiled pT75; [16]): <.5 | Relative activity (supercoiled pT75; 3 rNTPs, dATP, Mg^2+): 1-2 | Relative activity (supercoiled pT75; 3 rNTPs, dATP, Mn^2+): 1-2 | Relative activity (supercoiled pT75; 3 rNTPs, dCTP, Mg^2+): 4-9 | Relative activity (supercoiled pT75; 3 rNTPs, dCTP, Mn^2+): 15 | Relative activity (supercoiled pT75; 3 rNTPs, dGTP, rGMP, Mg^2+): <.5 | Relative activity (supercoiled pT75; 3 rNTPs, dGTP, rGMP, Mn^2+): 1-3 | Relative activity (supercoiled pT75; 3 rNTPs, dGTP, Mg^2+): <.5 | Relative activity (supercoiled pT75; 3 rNTPs, dGTP, Mn^2+): .5-2 | Relative activity (supercoiled pT75; 3 rNTPs, dTTP, Mg^2+): 11-13 | Relative activity (supercoiled pT75; 3 rNTPs, dTTP, Mn^2+): 7-8 | Relative activity (supercoiled pT75; 3 rNTPs, dUTP, Mg^2+): 9-11 | Relative activity (supercoiled pT75; 3 rNTPs, dUTP, Mn^2+): 10-11 | Relative activity (supercoiled pT75; 4 dNTPs, rGMP, Mg^2+): <.5 | Relative activity (supercoiled pT75; 4 dNTPs, rGMP, Mn^2+): <.5 | Relative activity (supercoiled pT75; 4 rNTPs, Mg^2+): 200 | Relative activity (supercoiled pT75; 4 rNTPs, Mn^2+): 21-23 | Reduction of run-off transcription (HindIII-cut pT75; 2′-OMe-CTP): undetectable | Reduction of run-off transcript synthesis (HindIII-cut pT75): 11 fold | Reduction of run-off transcription (HindIII-cut pT75; [17]): undetectable | Reduction of run-off transcript yields relative to 4 NTPs (HindIII-cut pT75): 18 fold

Y639F: T7 RNAP with wild-type tyrosine at position 639 substituted by phenylalanine
Relative activity (supercoiled pT75; [1]): 3-5 | Relative activity (supercoiled pT75; [2]): 1-2 | Relative activity (supercoiled pT75; [3]): 12-14 | Relative activity (supercoiled pT75; [4]): .7-2 | Relative activity (supercoiled pT75; [5]): 10-11 | Relative activity (supercoiled pT75; [6]): 2-3 | Relative activity (supercoiled pT75; [7]): 11 | Relative activity (supercoiled pT75; [8]): 1.5-2 | Relative activity (supercoiled pT75; [9]): 10-13 | Relative activity (supercoiled pT75; [10]): 2-4 | Relative activity (supercoiled pT75; [11]): 5-6 | Relative activity (supercoiled pT75; [12]): 1-1.5 | Relative activity (supercoiled pT75; 2 rNTPs, dATP, dTTP, Mg^2+): 11-14 | Relative activity (supercoiled pT75; 2 rNTPs, dATP, dTTP, Mn^2+): 3-4 | Relative activity (supercoiled pT75; 2 rNTPs, dCTP, dATP, Mg^2+): 20-29 | Relative activity (supercoiled pT75; 2 rNTPs, dCTP, dATP, Mn^2+): 4-7 | Relative activity (supercoiled pT75; [13]): 11-14 | Relative activity (supercoiled pT75; [14]): 2-5 | Relative activity (supercoiled pT75; 2 rNTPs, dCTP, dTTP, Mg^2+): 30 | Relative activity (supercoiled pT75; 2 rNTPs, dCTP, dTTP, Mn^2+): 5 | Relative activity (supercoiled pT75; 2 rNTPs, dCTP, dUTP, Mg^2+): 27-29 | Relative activity (supercoiled pT75; 2 rNTPs, dCTP, dUTP, Mn^2+): 4-7 | Relative activity (supercoiled pT75; [15]): 13-15 | Relative activity (supercoiled pT75; [16]): 3-6 | Relative activity (supercoiled pT75; 3 rNTPs, dATP, Mg^2+): 73 | Relative activity (supercoiled pT75; 3 rNTPs, dATP, Mn^2+): 2-3 | Relative activity (supercoiled pT75; 3 rNTPs, dCTP, Mg^2+): 86 | Relative activity (supercoiled pT75; 3 rNTPs, dCTP, Mn^2+): 7-11 | Relative activity (supercoiled pT75; 3 rNTPs, dGTP, rGMP, Mg^2+): 95-109 | Relative activity (supercoiled pT75; 3 rNTPs, dGTP, rGMP, Mn^2+): 1.4-2.5 | Relative activity (supercoiled pT75; 3 rNTPs, dGTP, Mg^2+): 43-63 | Relative activity (supercoiled pT75; 3 rNTPs, dGTP, Mn^2+): 3 | Relative activity (supercoiled pT75; 3 rNTPs, dTTP, Mg^2+): 90-96 | Relative activity (supercoiled pT75; 3 rNTPs, dTTP, Mn^2+): 4 | Relative activity (supercoiled pT75; 3 rNTPs, dUTP, Mg^2+): 82-91 | Relative activity (supercoiled pT75; 3 rNTPs, dUTP, Mn^2+): 7-8 | Relative activity (supercoiled pT75; 4 dNTPs, rGMP, Mg^2+): <.5 | Relative activity (supercoiled pT75; 4 dNTPs, rGMP, Mn^2+): .5 | Relative activity (supercoiled pT75; 4 rNTPs, Mg^2+): 200 | Relative activity (supercoiled pT75; 4 rNTPs, Mn^2+): 9 | Reduction of run-off transcription (HindIII-cut pT75; 2′-OMe-CTP): undetectable | Reduction of run-off transcript synthesis (HindIII-cut pT75): 5 fold | Reduction of run-off transcription (HindIII-cut pT75; [17]): 65 fold | Reduction of run-off transcript yields relative to 4 NTPs (HindIII-cut pT75): 8.5 fold
